B1: GSE56: p53 dominant negative peptide (SEQ ID NO: 3), delivered as in vitro transcribed mRNA (nucleic acid)
DNA: ATGGATGGATGGTGTCCTGGGAGAGACCGTCGGACAGAGGAAGAAAATTTCCGCAAAAAAGAAGAGCATTGCCCGGAGCTGCCCCCAGGGAGTGCAAAGAGAGCACTGCCCACCAGCACAAGCTCCTCTCCCCAGCAAAAGAAAAAACCACTCGATGGAGAATATTTCACCCTTAAGATCCGTGGGCGTGAGCGCTTCGAGATGTTCCGAGAGCTGAATGAGGCCTTGGAATTAAAGGATGCCCGTGCTGCCGAGGAGTCAGGAGACAGCAGGGCTCACTCCAGCTACCCGAAGATAGTTAGTTAG
modifications: in vitro transcribed mRNA; protein SEQ ID NO: 3
B2: Ad5-E4orf6/7: adenovirus serotype 5 protein E4orf6/7 (SEQ ID No. 27), delivered as in vitro transcribed mRNA (nucleic acid)
DNA: ATGACCACCAGCGGCGTGCCCTTCGGCATGACACTCAGACCTACCAGAAGCCGGCTGAGCAGAAGAACCCCTTACAGCAGAGACAGGCTGCCTCCATTCGAGACAGAGACACGGGCCACCATCCTGGAAGATCACCCTCTGCTGCCCGAGTGTAACACCCTGACCATGCACAACGCCTGGACAAGCCCATCTCCTCCAGTGAAACAGCCCCAAGTGGGACAGCAGCCTGTTGCTCAGCAGCTGGACAGCGACATGAACCTGTCTGAACTGCCCGGCGAGTTCATCAACATCACCGACGAGAGACTGGCCCGGCAAGAGACAGTGTGGAACATCACCCCTAAGAACATGAGCGTGACCCACGACATGATGCTGTTCAAGGCCAGCAGAGGCGAGCGGACAGTGTACAGCGTTTGTTGGGAAGGCGGCGGACGGCTGAATACCAGAGTGCTGTAA
modifications: in vitro transcribed mRNA

How the values were obtained:
[1] = tested on: vector DNA (ITR+cargo, ITR, HIV probes) in human graft; experiment: ddPCR of viral vector copies per human genome in long-term human xenografts; format: in vivo, NSG mice; settings: AAVS1-edited HSPCs, AAV template
Source text: Since short-read sequencing of the edited locus and genome-wide IS identification may underestimate the overall frequency of trapping events, we performed ddPCR analyses to get an independent genome-wide quantification of AAV genome trapping events. […] On the contrary, we detected only background noise signal when probing for the AAV plasmid contaminants in the human long-term graft (FIG. 6i). […] Whether integration of AAV DNA occurs mostly as individual elements in a sizable fraction of cells treated for editing or as concatemers in only a small fraction of them cannot be determined by this analysis. Since ITR fragments are not detected by the ITR+cargo assay we performed ddPCR also with the ITR probe on PB samples of mice from FIG. 5g and found equal or higher signal in most mice (FIG. 51).
gDNA was isolated with QIAamp DNA Micro Kit from DNAse-treated in vitro culture cells pellet and in vivo samples, or with QuickExtract (Epicentre) from single colonies according to the manufacturer's instructions. For ddPCR analyses, 5-50 ng of gDNA for in vitro/vivo samples and 2 μl of gDNA for single colonies were analyzed using the QX200 Droplet Digital PCR System according to the manufacturer's instructions. […]

[2] = tested on: AAVS1 locus; format: in vivo, human xenograft; settings: in presence and absence of Ad5-E4orf6/7; 65 samples of published experiments
Description: PCR amplicons for individual samples were generated by nested PCR and starting from >50-100 ng of purified gDNA. The first PCR step was performed with GoTaq G2 DNA Polymerase (Promega) according to manufacturer instruction using the following amplification protocol: 95° C.×5′min, (95° C.×0.5 min, 60° C.×0.5 min, 72° C.×[…])×20 cycles, 72° C.×5 min. The second PCR step was performed with GoTaq G2 DNA Polymerase (Promega) according to manufacturer instruction using 5 μl of the first-step PCR product and the following amplification protocol: 95° C.×5 min, (95° C.×0.5 min, 60° C.×0.5 min, 72° C.×0.3 min)×20 cycles, 72° C.×5 min. […] Amplicons concentration and quality was assessed by QuantiFluor ONE dsDNA system and 4200 Tapestation System (Agilent). […]
Sequencing data were analyzed with CRISPResso2, which enables detection and quantification of insertions, mutations, and deletions in reads from gene editing experiments. In details, for each sample, input NGS reads were trimmed using the Trimmomatic software (http://www.usadellab.org/cms/?page=trimmomatic) based on the phred33 score to get rid of low-quality positions (score <30) and to remove Illumina adapters, keeping only trimmed sequences longer than 100 bp (CRISPResso2 options:—trim_sequences—trimmomatic_command trimmomatic—trimmomatic_options_string ‘[…]: TruSeq3-PE-2.fa: 2:30:10 MINLEN: 100’). […]

Row | Molecule | ITR+cargo copies in long-term xenograft in presence of editing enhancers [1] | frequency and number of unique NHEJ-edited alleles in the human graft [2]
1 | B1 | more copies | higher
2 | B2 | more copies | –

— patent US20250288617A1, “Gene Therapy” (priority 2022, published 2025)
